Experimental data published in patent publication US7709002 (US Dept. of Health and Human Services, dated 2010).

Assays:
HLA-A2 [1] = target: HLA-A2 (human); assay: T2 bioassay (peptide 50 µg/ml + b2m 3 µg/ml, overnight), flow cytometry, stained with anti-HLA-A2 MAb
HLA-A2 [2] = target: HLA-A2 (human); assay: T2 bioassay (peptide 50 µg/ml + b2m 3 µg/ml, overnight), flow cytometry, stained with pan class I MAb W6/32

MFI (HLA-A2 [1]): 285
MFI (HLA-A2 [2]): 523
B1: wild-type ras5-14(Gly12) peptide (peptide)
peptide: KLVVVGAGGV
notes: also called ras5-14(G12); normal ras 10-mer
